Data published in publication PMC12286842 (Nature, 2025).

Biological target: T1, ^15N-labelled ubiquitin (WT, untagged) (UniProt P0CG48 1-76, ^15N-labelled)
T1 construct: ubiquitin, the 76-residue mature protein; also called ^15N-ubiquitin; source: E. coli BL21 (DE3) in M9 medium with ^15N-ammonium chloride, purified (cation exchange, Superdex 75 SEC)
Test: NMR titration; ^1H-^15N HSQC of ^15N-ubiquitin titrated with unlabelled UBR4-UBL; 25 mM NaPi pH 7.0, 150 mM NaCl, 1 mM TCEP, 10% D2O; global fit of chemical shift perturbations to 1:1 binding
Conditions: both partners purified

- Kd: 124 µM
B1: 6×His-tagged UBR4-UBL (residues 4340–4463) (domain or fragment, human, UniProt Q5T4S7-1 4340-4463, looked up)
chain: YPEENEVTEFFVTLEKDPQQEDFLQGRMPGNPYSSNEPGIGPLMRDIKNKICQDCDLVALLEDDSGMELLVNNKIISLDLPVAEVYKKVWCTTNEGEPMRIVYRMRGLLGDATEEFIESLDSTT
notes: UBR4 ubiquitin-like (UBL) domain, residues 4340–4463 of UniProt Q5T4S7-1; also called UBL domain; UBR4 UBL domain; source: E. coli BL21 (DE3), purified (Ni-NTA HisTrap FF, Superdex 75 SEC)
